B1: Y298F/Y328F (receptor)
receptor chain: HEGGQDKPLLSAWPSAVVPRGGHVTLLCRSRLGFTIFSLYKEDGVPVPELYNKIFWKSILMGPVTPAHAGTYRCRGSHPRSPIEWSAPSNPLVIVVTGLFGKPSLSAQPGPTVRTGENVTLSCSSRSSFDMYHLSREGRAHEPRLPAVPSVNGTFQADFPLGPATHGGTYTCFGSLHDSPYEWSDPSDPLLVSVTGNSSSSSSSPTEPSSKTGIRRHLHILIGTSVAIILFIILFFFLLHCCCSNKKNAAVMDQEPAGDRTVNREDSDDQDPQEVTFAQLDHCVFTQTKITSPSQRPKTPPTDTTMFMELPNAKPRSLSPAHKHHSQALRGSSRETTALSQNRVASSHVPAAGI
notes: also called KIR2DL5 Y298F/Y328F (ITIM and ITSM mutant) on transduced primary NK cells
B2: recombinant human DNAM-1-His tag protein (receptor, UniProt Q15762 19-247, looked up)
chain: EEVLWHTSVPFAENMSLECVYPSMGILTQVEWFKIGTQQDSIAIFSPTHGMVIRKPYAERVYFLNSTMASNNMTLFFRNASEDDVGYYSCSLYTYPQGTWQKVIQVVQSDSFEAAVPSNSHIVSEPGKNVTLTCQPQMTWPVQAVRWEKIQPRQIDLLTYCNLVHGRNFTSKFPRQIVSNCSHGRWSVIVIPDVTVSDSGLYRCYLQASAGENETFVMRLTVAEGKTDN
notes: Bought; also called CD226-His; not shown: His tag

Key:
SHP-2 = molecular target: T1, SHP-2 (human, UniProt Q06124 2-593); experiment: co-immunoprecipitation with anti-KIR2DL5 from transduced primary NK cells with or without pervanadate, immunoblot
T1 sequence (looked up): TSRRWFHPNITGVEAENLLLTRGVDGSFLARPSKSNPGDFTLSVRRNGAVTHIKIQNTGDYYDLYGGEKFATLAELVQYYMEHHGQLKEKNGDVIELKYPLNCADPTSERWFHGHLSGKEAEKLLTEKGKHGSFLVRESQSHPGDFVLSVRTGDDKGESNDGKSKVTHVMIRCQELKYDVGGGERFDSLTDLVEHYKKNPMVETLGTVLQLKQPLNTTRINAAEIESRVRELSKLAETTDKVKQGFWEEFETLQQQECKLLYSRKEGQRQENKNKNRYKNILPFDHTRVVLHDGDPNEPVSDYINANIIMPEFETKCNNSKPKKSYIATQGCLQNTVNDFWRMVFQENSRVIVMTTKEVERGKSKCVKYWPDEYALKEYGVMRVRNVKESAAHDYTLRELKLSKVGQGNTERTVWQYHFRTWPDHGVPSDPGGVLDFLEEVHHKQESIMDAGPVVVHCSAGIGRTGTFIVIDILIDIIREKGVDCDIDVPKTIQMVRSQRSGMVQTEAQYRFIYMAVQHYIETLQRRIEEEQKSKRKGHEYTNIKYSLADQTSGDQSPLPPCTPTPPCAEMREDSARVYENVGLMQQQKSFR
Description: (§1) FIG. 12A-12E: KIR2DL5 ITIM and ITSM mediated NK cell inhibition and suppressed downstream signaling. (A) Tyrosine (Y) in ITIM and ITSM of KIR2DL5 was mutated to phenylalanine (F). The KIR2DL5⁻ primary NK cells were transduced with WT KIR2DL5 or the indicated mutants, and then examined for protein expression with F8B30 (open) or mIgG1 (shaded). NC, negative control. Data are representative of 2 independent experiments. (B and C) Transduced primary NK cells were treated with (+) or without (−) pervanadate (VO₄) for 5 minutes. Cell lysates were immunoprecipitated with anti-KIR2DL5 antibodies. Phospho-tyrosine (4G10), SHP-1, SHP-2, and total KIR2DL5 were detected by immunoblots (B). Quantification of p-Tyr, SHP-1, and SHP-2 association with WT or mutant KIR2DL5 in VO₄-treated NK cells (C). WCL, whole-cell lysates. (D) Representative imaging of cell conjugates acquired upon the indicated transduced primary NK and PVR/Raji cell contact followed by staining with anti-KIR2DL5 mAb and DAPI. Scale bars: […]. (E) Lysis of scramble control or PVR^KO A427 (top) and Jurkat (bottom) by WT or mutant KIR2DL5-transduced primary NK cells at the indicated E/T ratios. Data are mean for duplicate measurements and representative of 3 independent experiments with 3 different donors. In A, and B, data are representative of 3 independent experiments. *P<0.05, **P<0.01, ***P<0.001, ****P<0.0001, by 1-way ANOVA (C), or paired Student's t test (D).
(§2) Coimmunoprecipitation and immunoblotting. NK92 cells or primary NK cells pretreated with or without 1 mM pervanadate (New England BioLabs) were lysed in Pierce immunoprecipitation lysis buffer supplemented with protease and phosphatase inhibitor cocktail (Thermo Fisher Scientific). Proteins from whole-cell lysis were further incubated with anti-KIR2DL5 antibodies and Dynabeads protein G (Thermo Fisher Scientific) for further immunoprecipitation. […]

SHP-1 = SHP-1 (human, UniProt P29350 1-595); experiment: as above
Description: as §1, §2

[1] = molecular target: T2, PVR expressed on transduced cells (PVR-YFP) (UniProt P15151 21-417); experiment: confocal imaging of conjugates of transduced primary NK cells with PVR-YFP/Raji cells
T2 construct: whole, on cells; On NIH 3T3 or Raji cells; also called PVR/3T3; PVR-YFP/3T3; not shown: YFP ('PVR-YFP ... fusion protein')
T2 sequence (looked up): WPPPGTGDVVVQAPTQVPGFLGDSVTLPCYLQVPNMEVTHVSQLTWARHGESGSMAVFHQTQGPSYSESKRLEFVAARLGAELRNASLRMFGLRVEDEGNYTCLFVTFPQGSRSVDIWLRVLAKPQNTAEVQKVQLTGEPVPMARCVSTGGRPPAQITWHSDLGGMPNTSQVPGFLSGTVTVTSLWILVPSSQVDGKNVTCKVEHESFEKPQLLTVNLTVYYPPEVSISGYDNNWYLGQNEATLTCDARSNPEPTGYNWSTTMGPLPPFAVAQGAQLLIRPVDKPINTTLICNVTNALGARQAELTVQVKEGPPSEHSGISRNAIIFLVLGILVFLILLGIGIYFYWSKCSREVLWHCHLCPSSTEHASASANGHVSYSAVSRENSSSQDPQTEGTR
Description: as §1, with “The” for “FIG. 12A-12E: KIR2DL5 ITIM and ITSM mediated NK cell inhibition and suppressed downstream signaling. (A) Tyrosine (Y) in ITIM and ITSM of KIR2DL5 was mutated to phenylalanine (F). The”
NK-Raji conjugation assay. […] Cell mixtures were then loaded onto poly-L-lysine-precoated slides and fixed with 4% formaldehyde at RT for 15 minutes. After blocking with 5% normal goat serum at RT for 1 hour, cells were stained with 20 µg/mL anti-KIR2DL5 antibodies (a mixture of 8 homemade clones) at 4° C. overnight and then with goat anti-mIgG (H+L) Alexa Flour 647 (Invitrogen) at RT for 2 hours. The cells were permeabilized by 0.1% Triton X-100 at RT for 15 minutes and stained with Alexa Flour Plus 405 Phalloidin (Life Technologies) for 1 hour at RT. The slides were then mounted by Gold Antifade Mountant without DAPI (Life Technologies). The mean pixel intensity of synapse and non-synapse was respectively measured and statistically analyzed. Images were acquired by Leica SP8 confocal microscope and processed by ImageJ (NIH).

[2] = molecular target: T2, PVR expressed on transduced cells …; experiment: flow cytometry, PVR/3T3 cells preincubated with DNAM-1-His, then KIR2DL5-Ig

SHP-1, sequence (P29350 whole entry): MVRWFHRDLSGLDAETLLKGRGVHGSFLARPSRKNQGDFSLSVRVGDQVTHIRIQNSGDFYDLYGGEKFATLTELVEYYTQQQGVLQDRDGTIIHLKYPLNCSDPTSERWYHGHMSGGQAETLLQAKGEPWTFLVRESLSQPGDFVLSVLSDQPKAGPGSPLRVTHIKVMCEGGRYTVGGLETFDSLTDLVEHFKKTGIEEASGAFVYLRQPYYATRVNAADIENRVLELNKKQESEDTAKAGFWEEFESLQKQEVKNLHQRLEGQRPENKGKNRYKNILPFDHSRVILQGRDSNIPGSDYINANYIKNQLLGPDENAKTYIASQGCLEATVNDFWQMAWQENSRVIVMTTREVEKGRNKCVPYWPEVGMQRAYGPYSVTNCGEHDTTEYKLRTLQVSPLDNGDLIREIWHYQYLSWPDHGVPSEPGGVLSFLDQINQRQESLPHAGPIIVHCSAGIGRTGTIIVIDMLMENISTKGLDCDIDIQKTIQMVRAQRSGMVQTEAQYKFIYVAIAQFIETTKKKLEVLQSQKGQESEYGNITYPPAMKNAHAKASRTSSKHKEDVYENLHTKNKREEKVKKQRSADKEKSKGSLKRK

Binder	binding result (SHP-2)	binding result (SHP-1)	binding result [1]	binding result [2]
B1	no binding	no binding	binds	
B2				binds

From patent US20250019435A1 (ALBERT EINSTEIN COLLEGE OF MEDICINE, published 2025)
